According to patent publication US20180344812A1 (Scripps Research, published 2018):
Bridges are numbered along the chain shown (N, C = ends). Primed or numbered codes have the meaning given here. Where no end group is shown, it is not given here. [ ]: non-standard residue; d: D form. L1″ = C4 bis(bromoacetamide) staple without lipid, joins two Cys through thioethers; L4″ = octadecanedioic acid-PEG-ornithine staple, joins two Cys through thioethers; L2″ = myristic acid-PEG-ornithine staple, joins two Cys through thioethers; L6″ = as L5, made on Rink amide resin, joins two Cys through thioethers; L1 = C4 bis(bromoacetamide) staple without lipid; L4 = octadecanedioic acid-PEG-ornithine staple; L3 = myristic acid-PEG-PEG-ornithine staple; L5 = C18 diacid-Lys-PEG2-ornithine staple; L2 = myristic acid-PEG-ornithine staple; L6 = made as L5 but on Rink amide resin; L11 = not defined here; L12 = not defined here; L13 = not defined here; L7 = not defined here; L8 = not defined here; L9 = not defined here

T1: human Glucagon-like peptide 2 receptor (GLP-2R) (human, UniProt O95838 1-553)
T1 sequence (looked up): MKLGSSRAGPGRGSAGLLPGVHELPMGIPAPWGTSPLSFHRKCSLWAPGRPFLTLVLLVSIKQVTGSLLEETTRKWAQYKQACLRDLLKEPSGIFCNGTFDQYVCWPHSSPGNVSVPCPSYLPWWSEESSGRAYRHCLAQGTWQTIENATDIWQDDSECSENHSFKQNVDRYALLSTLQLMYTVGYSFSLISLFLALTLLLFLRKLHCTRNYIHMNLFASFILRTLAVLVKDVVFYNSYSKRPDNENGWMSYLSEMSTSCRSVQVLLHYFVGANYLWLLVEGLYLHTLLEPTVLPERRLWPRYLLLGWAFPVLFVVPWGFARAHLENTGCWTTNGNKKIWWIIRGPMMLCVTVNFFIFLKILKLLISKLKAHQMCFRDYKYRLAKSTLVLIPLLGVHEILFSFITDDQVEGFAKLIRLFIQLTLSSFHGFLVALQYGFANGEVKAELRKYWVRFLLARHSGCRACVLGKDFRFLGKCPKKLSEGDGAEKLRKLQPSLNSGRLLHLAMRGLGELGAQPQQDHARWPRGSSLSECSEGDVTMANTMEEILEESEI

B1: mTA 24: OXM (B) and L11 (peptide)
peptide: H[dS]QGTFTSDYSKYLDECAAKEFICWLMNTKRNRNNIA
modifications: linker 17-24 via L11; reading uncertain; also: printed as HsQGTFTSDYSKYLDEXAAKEFIXWLMNTKRNRNNIA
B2: mTA 22: OXM (B) and L9 (peptide)
peptide: H[dS]QGTFTSDYSKYLDECAAKEFICWLMNTKRNRNNIA
modifications: linker 17-24 via L9; not fully specified; printed as HsQGTFTSDYSKYLDEXAAKEFIXWLMNTKRNRNNIA; reading uncertain
B3: mTA 25: OXM (B) and L12 (peptide)
peptide: H[dS]QGTFTSDYSKYLDECAAKEFICWLMNTKRNRNNIA
modifications: linker 17-24 via L12; reading uncertain; also: printed as HsQGTFTSDYSKYLDEXAAKEFIXWLMNTKRNRNNIA
B4: mTA 26: OXM (B) and L13 (peptide)
peptide: H[dS]QGTFTSDYSKYLDECAAKEFICWLMNTKRNRNNIA
modifications: linker 17-24 via L13; reading uncertain; also: printed as HsQGTFTSDYSKYLDEXAAKEFIXWLMNTKRNRNNIA
B5: mTA 20: OXM (B) and L7 (peptide)
peptide: H[dS]QGTFTSDYSKYLDECAAKEFICWLMNTKRNRNNIA
modifications: linker 17-24 via L7; reading uncertain; also: printed as HsQGTFTSDYSKYLDEXAAKEFIXWLMNTKRNRNNIA
B6: mTA 21: OXM (B) and L8 (peptide)
peptide: H[dS]QGTFTSDYSKYLDECAAKEFICWLMNTKRNRNNIA
modifications: linker 17-24 via L8; reading uncertain; also: printed as HsQGTFTSDYSKYLDEXAAKEFIXWLMNTKRNRNNIA

What was measured:
Assay in all cases: cell-based or functional assay
[1] = molecular target: human glucagon receptor (GCGR) (human, UniProt P47871 26-477)
[2] = molecular target: human glucagon-like peptide 1 receptor (GLP-1R) (human, UniProt P43220 24-463)
[3] = molecular target: T1, human Glucagon-like peptide 2 receptor …

Chain of human glucagon receptor (GCGR) (P47871 26-477): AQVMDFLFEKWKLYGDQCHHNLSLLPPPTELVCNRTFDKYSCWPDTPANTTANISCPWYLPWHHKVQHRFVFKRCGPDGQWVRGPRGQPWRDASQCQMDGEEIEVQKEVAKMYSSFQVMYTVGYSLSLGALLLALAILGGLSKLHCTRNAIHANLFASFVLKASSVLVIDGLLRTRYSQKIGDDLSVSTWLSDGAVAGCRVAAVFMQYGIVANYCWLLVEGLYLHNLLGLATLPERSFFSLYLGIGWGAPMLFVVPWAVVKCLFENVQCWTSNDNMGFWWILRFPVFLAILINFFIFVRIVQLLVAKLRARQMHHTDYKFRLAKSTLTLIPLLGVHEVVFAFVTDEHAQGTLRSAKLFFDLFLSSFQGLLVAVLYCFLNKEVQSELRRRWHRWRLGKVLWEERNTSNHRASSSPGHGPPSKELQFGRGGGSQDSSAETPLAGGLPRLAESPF

Binder	EC50, CRE-luciferase reporter in HEK293-GCGR-CRE cells [1] [nM]	EC50, CRE-luciferase reporter in HEK293-GLP-1R-CRE cells [2] [nM]	EC50, CRE-luciferase reporter in HEK293-GLP-2R-CRE cells [3] [nM]
H[dS]QGTFTSDYSKYLDECAAKEFICWLLRA (linker 17-24 via L4) [mTA 31: GLP-1/Glucagon (B) and L4]	0.12	0.03	
H[dS]QGTFTSDYSKYLDECAAKEFICWLLRA (linker 17-24 via L5) [mTA 32: GLP-1/Glucagon (B) and L5]	1	0.3	
H[dS]QGTFTSDYSKYLDECAAKEFICWLLRAGPSSGAPPPS (linker 17-24 via L4) [mTA 34: GLP-1/Glucagon (C) and L4]	0.4	0.04	
H[dS]QGTFTSDYSKYLDECAAKEFICWLMNTKRNRNNIA (linker 17-24 via L4″) [mTA 17: OXM (B) and L4]	3	2	
B1	3	0.2	
B2	14	40	
H[dS]QGTFTSDYSKYLDECAAKEFICWLLNGGPSSGAPPPS (linker 17-24 via L5) [mTA 38: GLP-1/Glucagon (D) and L5]	0.4	0.04	
H[dS]QGTFTSDYSKYLDSCAAHDFVCWLLRA (linker 17-24 via L1) [mTA 27: GLP-1/Glucagon (A) and L1]	0.04	0.2	
H[dS]QGTFTSDYSKYLDECAAKEFICWLLRA (linker 17-24 via L1) [mTA 29: GLP-1/Glucagon (B) and L1]	0.03	0.03	
H[dS]QGTFTSDYSKYLDECAAKEFICWLLNGGPSSGAPPPS (linker 17-24 via L6) [mTA 39: GLP-1/Glucagon (D) and L6]	0.3	0.04	
H[dS]QGTFTSDYSKYLDECAAKEFICWLMNTKRNRNNIA (linker 17-24 via L5) [mTA 18: OXM (B) and L5]		0.2	
H[dS]QGTFTSDYSKYLDSCAAHDFVCWLLRA (linker 17-24 via L2) [mTA 28: GLP-1/Glucagon (A) and L2]	0.1	0.1	
B3	0.5	0.1	
H[dS]QGTFTSDYSKYLDECAAKEFICWLLRAGPSSGAPPPS (linker 17-24 via L5) [mTA 35: GLP-1/Glucagon (C) and L5]	1	0.5	
H[dS]QGTFTSDYSKYLDECAAKEFICWLMNTKRNRNNIA (linker 17-24 via L1″) [mTA 15: OXM (B) and L1]	0.2	0.03	
B4	0.5	0.05	
H[dS]QGTFTSDYSKYLDECAAKEFICWLLNGGPSSGAPPPS (linker 17-24 via L4) [mTA 37: GLP-1/Glucagon (D) and L4]	0.2	0.03	

Binder	EC50, CRE-luciferase reporter in HEK293-GCGR-CRE cells [1] [nM]	EC50, CRE-luciferase reporter in HEK293-GLP-1R-CRE cells [2] [nM]	EC50, CRE-luciferase reporter in HEK293-GLP-2R-CRE cells [3] [nM]
HGDGSFSCEMNTILCALAARDFINWLIQTKITD (linker 8-15 via L1) [mTA 53: GLP-2 (D) and L1]			14.3
HGDGSFSDEMNTILDALAARCFINWLICTKITD (linker 21-28 via L1) [mTA 54: GLP-2 (E) and L1]			0.13
H[dS]QGTFTSDYSKYLDECAAKEFICWLLRA (linker 17-24 via L2) [mTA 30: GLP-1/Glucagon (B) and L2]	0.05	0.03	
H[dS]QGTFTSDYSKYLDECAAKEFICWLMNTKRNRNNIA (linker 17-24 via L6″) [mTA 19: OXM (B) and L6]		0.2	
B5	5.4	17	
H[dS]QGTFTSDYSKYLDECAAKEFICWLMNTKRNRNNIA (linker 17-24 via L2″) [mTA 16: OXM (B) and L2]	0.3	0.04	
H[dS]QGTFTSDYSKYLDECAAKEFICWLLRA (linker 17-24 via L6) [mTA 33: GLP-1/Glucagon (B) and L6]	0.4	0.05	
HGDGSFSDEMNTILDNCAARDFICWLIQTKITD (linker 17-24 via L1) [mTA 46: GLP-2 (A) and L1]			0.045
HGDGSFSDEMNTILDCLAARDFICWLIQTKITD (linker 16-24 via L1) [mTA 52: GLP-2 (C) and L1]			5.6
HGDGSFSDEMNTILDNCAARDFICWLIQTKITD (linker 17-24 via L5) [mTA 50: GLP-2 (A) and L5]			6.4
HGDGSFSDEMNTILDNCAARDFICWLIQTKITD (linker 17-24 via L3) [mTA 48: GLP-2 (A) and L3]			0.045
HGDGSFSDEMNTILDNCAARDFICWLIQTKITD (linker 17-24 via L2) [mTA 47: GLP-2 (A) and L2]			0.041
HGDGSFSDEMNTILDNCAARDFICWLIQTKITD (linker 17-24 via L4) [mTA 49: GLP-2 (A) and L4]			0.241
HGDGSFSDCMNTILDCLAARDFINWLIQTKITD (linker 9-16 via L1) [mTA 55: GLP-2 (F) and L1]			0.064
HGDGSFSDEMNTILDNCAARDFICWLIQTKITD (linker 17-24 via L6) [mTA 51: GLP-2 (A) and L6]			0.7
H[dS]QGTFTSDYSKYLDECAAKEFICWLLRAGPSSGAPPPS (linker 17-24 via L6) [mTA 36: GLP-1/Glucagon (C) and L6]	0.5	0.3	
B6	0.7	0.12	
